# Experimental data as given in patent US20210088514A1 (ACADEMIA SINICA, published 2021).
# T1: epithelial cell adhesion molecule (EpCAM) (UniProt P16422 24-314, limits assumed)
# T1 construct: whole, on cells; also called EpCAM membrane protein
# T1 sequence (looked up): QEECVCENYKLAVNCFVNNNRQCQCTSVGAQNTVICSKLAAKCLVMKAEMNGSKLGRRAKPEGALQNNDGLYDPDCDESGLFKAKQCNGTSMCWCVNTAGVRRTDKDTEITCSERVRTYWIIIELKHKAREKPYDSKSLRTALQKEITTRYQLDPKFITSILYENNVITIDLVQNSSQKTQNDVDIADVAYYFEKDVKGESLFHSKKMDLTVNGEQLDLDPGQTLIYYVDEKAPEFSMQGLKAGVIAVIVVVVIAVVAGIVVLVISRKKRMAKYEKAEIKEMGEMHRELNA
# Biological target: T1, epithelial cell adhesion molecule …
# Experiment: capture of HCT116 and SAS cells on antibody surface coating, colorimetric read-out at OD 490 nm
# Procedure: The binding specificity of biotinylated OC9801 antibody, biotinylated EpAb4-1 antibody and biotinylated EpCam antibody (commercially available from R&D system, USA) were examined using the HCT116 (colorectal) CTCs and SAS (tongue) CTCs.
# The CTC binding specificy of the antibodies was determined by colorimetric method, by measuring the absorption optical density at 490 nm.
binder,measurement,value
"biotinylated EpAb4-1 antibody (antibody, V domains shown, biotinylated with Sulfo NHS-LC-Biotin; ratio of biotin and antibody 1.5 to 1; sites not stated, Immobilised through streptavidin on the surface coating in the assay; also called bEpAb4-1; biotinylated anti-EpCam antibody) VH: QIQLVQSGPELKKPGETVKISCKASGYTFTNYGMNWVKQAPGKGLKWMGWINTYTGEPTYGDDFKGRFAFSLETSASTAYLQINNLKNEDTATYFCARFGRSVDFWGQGTSVTVSS VL: DIVMTQAAFSNPVTLGTSASISCRSSKSLLHSNGITYLYWYLQKPGQSPQLLIYHMSNLASGVPDRFSSSGSGTDFTLRISRVEAEDVGIYYCAQNLENPRTFGGGTKLEIK",binding result,binds
